Test results from patent US20210292396A1 (INTERNATIONAL AIDS VACCINE INITIATIVE, published 2021).

Experiments:
Assay in all cases: cell-based or functional assay
[1] = molecular target: HIV Env of isolate Ce704809221_1B3 (HIV)
[2] = molecular target: HIV Env of isolate 6244_13_B5_4576 (HIV)
[3] = molecular target: HIV Env of isolate 0260.v5.c36 (HIV)
HIV Env of isolate CNE58 = HIV Env of isolate CNE58 (HIV)
[4] = molecular target: HIV Env of isolate T251-18 (HIV)
[5] = molecular target: HIV Env of isolate P1981_C5_3 (HIV)
[6] = molecular target: HIV Env of isolate ZM109F.PB4 (HIV)
[7] = molecular target: HIV Env of isolate 7030102001E5(Rev-) (HIV)
[8] = molecular target: HIV Env of isolate ZM135M.PL10a (HIV)
[9] = molecular target: HIV Env of isolate 1394C9G1(Rev-) (HIV)
[10] = molecular target: HIV Env of isolate WEAU_d15_410_5017 (HIV)
[11] = molecular target: HIV Env of isolate CAAN5342.A2 (HIV)
[12] = molecular target: HIV Env of isolate 6952.v1.c20 (HIV)
[13] = molecular target: HIV Env of isolate 6240_08_TA5_4622 (HIV)
[14] = molecular target: HIV Env of isolate 6811.v7.c18 (HIV)
[15] = molecular target: HIV Env of isolate Ce1172_H1 (HIV)
[16] = molecular target: HIV Env of isolate Du422.1 (HIV)
[17] = molecular target: HIV Env of isolate X1254_c3 (HIV)
[18] = molecular target: HIV Env of isolate QH0692.42 (HIV)
[19] = molecular target: HIV Env of isolate SC05_8C11_2344 (HIV)
HIV Env of isolate CNE21 = HIV Env of isolate CNE21 (HIV)
[20] = molecular target: HIV Env of isolate 0815.v3.c3 (HIV)
[21] = molecular target: HIV Env of isolate 3301.v1.c24 (HIV)
[22] = molecular target: HIV Env of isolate ZM247v1(Rev-) (HIV)
[23] = molecular target: HIV Env of isolate 928-28 (HIV)
[24] = molecular target: HIV Env of isolate ZM53M.PB12 (HIV)
[25] = molecular target: HIV Env of isolate 3103.v3.c10 (HIV)
[26] = molecular target: HIV Env of isolate TRJO4551.58 (HIV)
[27] = molecular target: HIV Env of isolate Du172.17 (HIV)
[28] = molecular target: HIV Env of isolate Q23.17 (HIV)
[29] = molecular target: HIV Env of isolate 0330.v4.c3 (HIV)
[30] = molecular target: HIV Env of isolate RHPA4259.7 (HIV)
[31] = molecular target: HIV Env of isolate 6535.3 (HIV)
[32] = molecular target: HIV Env of isolate BJOX009000.02.4 (HIV)
HIV Env of isolate CNE19 = HIV Env of isolate CNE19 (HIV)
[33] = molecular target: HIV Env of isolate 235-47 (HIV)
[34] = molecular target: HIV Env of isolate 62357_14_D3_4589 (HIV)
HIV Env of isolate CNE30 = HIV Env of isolate CNE30 (HIV)
[35] = molecular target: HIV Env of isolate 246F_C1G (HIV)
HIV Env of isolate CNE53 = HIV Env of isolate CNE53 (HIV)
[36] = molecular target: HIV Env of isolate 191084_B7-19 (HIV)
[37] = molecular target: HIV Env of isolate A07412M1.vrc12 (HIV)
[38] = molecular target: HIV Env of isolate X2088_c9 (HIV)
HIV Env of isolate CNE17 = HIV Env of isolate CNE17 (HIV)
[39] = molecular target: HIV Env of isolate REJO4541.67 (HIV)

B1: PGT-121 (antibody, V domains shown)
VH: QMQLQESGPGLVKPSETLSLTCSVSGASISDSYWSWIRRSPGKGLEWIGYVHKSGDTNYSPSLKSRVNLSLDTSKNQVSLSLVAATAADSGKYYCARTLHGRRIYGIVAFNEWFTYFYMDVWGNGTQVTVSS
VL: SDISVAPGETARISCGEKSLGSRAVQWYQHRAGQAPSLIIYNNQDRPSGIPERFSGSPDSPFGTTATLTITSVEAGDEADYYCHIWDSRVPTKWVFGGGTTLTVLG
[1]
  neutralization (Table 6 value): 0.028
[2]
  neutralization (Table 6 value): 0.14
[3]
  neutralization (Table 6 value): 0.00144
HIV Env of isolate CNE58
  neutralization (Table 6 value): 1.28
[4]
  neutralization (Table 6 value): 1.16
[5]
  neutralization (Table 6 value): 0.00146
[6]
  neutralization (Table 6 value): 0.558
[7]
  neutralization (Table 6 value): 0.00679
[8]
  neutralization (Table 6 value): 1.32
[9]
  neutralization (Table 6 value): 0.122
[10]
  neutralization (Table 6 value): 0.0144
[11]
  neutralization (Table 6 value): 0.00872
[12]
  neutralization (Table 6 value): 0.000292
[13]
  neutralization (Table 6 value): 0.0427
[14]
  neutralization (Table 6 value): 0.00125
[15]
  neutralization (Table 6 value): 0.00693
[16]
  neutralization (Table 6 value): 0.00172
[17]
  neutralization (Table 6 value): 0.0206
[18]
  neutralization (Table 6 value): 0.176
[19]
  neutralization (Table 6 value): 0.0278
HIV Env of isolate CNE21
  neutralization (Table 6 value): 0.00525
[20]
  neutralization (Table 6 value): 7.9e-05
[21]
  neutralization (Table 6 value): 0.00869
[22]
  neutralization (Table 6 value): 0.0114
[23]
  neutralization (Table 6 value): 0.836
[24]
  neutralization (Table 6 value): 0.00038
[25]
  neutralization (Table 6 value): 0.0206
[26]
  neutralization (Table 6 value): 0.406
[27]
  neutralization (Table 6 value): 0.0316
[28]
  neutralization (Table 6 value): 0.00412
[29]
  neutralization (Table 6 value): 0.0513
[30]
  neutralization (Table 6 value): 0.00915
[31]
  neutralization (Table 6 value): 0.00325
[32]
  neutralization (Table 6 value): 0.243
HIV Env of isolate CNE19
  neutralization (Table 6 value): 0.00315
[33]
  neutralization (Table 6 value): 0.0457
[34]
  neutralization (Table 6 value): 0.392
HIV Env of isolate CNE30
  neutralization (Table 6 value): 0.00313
[35]
  neutralization (Table 6 value): 0.0215
HIV Env of isolate CNE53
  neutralization (Table 6 value): 0.00701
[36]
  neutralization (Table 6 value): 0.0247
[37]
  neutralization (Table 6 value): 0.00949
[38]
  neutralization (Table 6 value): 0.00214
HIV Env of isolate CNE17
  neutralization (Table 6 value): 0.225
[39]
  neutralization (Table 6 value): 0.286
